The assay concerns the target T1, human CCR5 chemokine receptor (Homo sapiens, UniProt P51681).
T1 construct: host or cells: Chinese Hamster Ovary (CHO) cells; membranes prepared from the cell pellet
In words: CC-Chemokine Receptor-5 Binding by Scintillation Proximity Assay (CCR5 SPA), displacement of 125I-MIP1α. The following applies: standards plate, 14-point concentration-response curve in triplicate, starting concentration 1 μM. The protocol:
CC-Chemokine Receptor-5 Binding by Scintillation Proximity Assay (CCR5 SPA)
Scintillation Proximity Assay for the Human CC-Chemokine Receptor, CCR-5
This protocol describes a high-throughput screen using SPA binding to identify compounds that inhibit binding of ^125I-MIP1α to the human CCR5 chemokine receptor.
Human CCR5 receptors were expressed in Chinese Hamster Ovary (CHO) cells, registration # 12025. Cells were grown in suspension and a 50 to 80 ml CCR5 cell pellet was prepared. […]
The saturation curve binding experiment is performed by adding varying amounts of [^125I]MIP1α (0-8.5 nM to membranes and beads in concentrations chosen from the optimal protein/bead ratio. The data is analyzed using a non-linear curve-fitting program. The Kd and Bmax are derived from the curve. […]
For orientation: Scintillation proximity formats need no separation of bound from free tracer.

The record followed here is patent US7531661B2, “Indane compounds as CCR5 antagonists” (SmithKline Beecham Corporation, priority 2002, dated 2009).

T1 sequence (P51681 whole entry): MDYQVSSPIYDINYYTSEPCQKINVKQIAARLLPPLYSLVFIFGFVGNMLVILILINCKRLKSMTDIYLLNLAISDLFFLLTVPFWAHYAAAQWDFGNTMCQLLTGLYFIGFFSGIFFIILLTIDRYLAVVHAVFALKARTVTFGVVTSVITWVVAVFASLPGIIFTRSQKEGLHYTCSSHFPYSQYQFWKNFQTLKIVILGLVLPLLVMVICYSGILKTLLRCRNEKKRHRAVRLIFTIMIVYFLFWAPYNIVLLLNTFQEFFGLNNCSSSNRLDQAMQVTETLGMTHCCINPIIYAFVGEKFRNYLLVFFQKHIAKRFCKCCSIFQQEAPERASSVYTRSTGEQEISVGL

For “MIP1α: standard compound of the CCR5 SPA; natural chemokine ligand of CCR5”, the “average historical pKi obtained with MIP1α” value came to 7.6.
